From the DeepSol protein solubility set

Test: soluble on expression in E. coli; label from the status in PepcDB or PDB records

Sequence | soluble on expression in E. coli
MTILFARNIEKGFGDRTLFTLPSLEIQAQDRIGIVGVNGAGKSTLLQILSKEIEADKGIVTHHSSISIIPQISEELPKVASSTAKGKWNISNISNSMSGGERMRLKIAHALEQDAGILFADEPTSHLDMFGTEQLEKALLSYKGALVLISHDREFLDNICTKIIEIEDGIIQEYKGNYSNYRKQKERERTQKQAEYEQYINEKERLEKSILQKKQRASSMTKIPTRFSSSESKLYKLSGANGQEQVSKAAKALETRLEKLEKKEKPKELSQAQFDVQYHTPIHSKVAVQFNKATKKIGDLTLFKNMNGTIAPGAKLAILGANGSGKTTLFNMLLANERGIQLSKSCKIGYFEQTLSILKTDKTILENVLEETNYTESFVRTILARLLFRREDVHKPVHVLSGGERMKVALAKVFLGNYNMLLLDEPTNYLDLATQEELESMLQEYPGTILFISHDRAFIRSVADHILQVDESEPRVFHGNYEQYTNRTADASVNVTAQELLRLQTKLTEIIGRISIPNHHDDITSLEQEYETLLVKIRKCKEAL | not soluble
MTINYQFGDVDAHGAMIRAQAGSLEAEHQAIISDVLTASDFWGGAGSAACQGFITQLGRNFQVIYEQANAHGQKVQAAGNNMAQTDSAVGSSWA | not soluble
MTIRNFAIEYDAINDRNTFSNGDTLAGRVIVEVSKQTKITSLTVQAKGKANVAWTETHGEESVTYWDKEKYFSQTQSVLPEDKADGSVTLVAGRHVFPFAFQLPNQSLPSSFKGVHGKIHYRLMAKLSRSFRAASKAEAKFTFVARADYDTSTLTTPQHGSKDKNVMFFASGNISMDIFLPKTGYQQGEGLIVNGEIVNSSTRKIVPKYIIYQKQSFFAGGQRAVHTTEILKEKGEPLVSSTRENLYKVLPLPPEISSTIHNCRILKVEYRLKVILDVSFTKNPVIKLPFIVLPLCNETPPKAIEEGLYPDLAKMKISN | soluble
MTISLRRTGILKFGIGLVALTIAASVQAKTLVYCSEGSPEGFNPQLFTSGTTYDASSVPIYNRLVEFKIGTTEIEPSLAERWEVSEDGKTYTFYLRKGVKWQDNKDFKPTRDFNADDVIYSFMRQKDDKNPYHKVSGGSYEYFQGMGMGDLITNVVKVDDNTVRFELTRPESPFLADLAMDFASILSAEYADNMLKAGTPEKVDLNPIGTGPFQLQQYQKDSRILYKAFPGFWGTKPKIDRLVFSITPDASVRYAKLQKNECQIMPYPNPADIARMKEDKTINLMEQPGLNVGYLSFNIEKKPLDNLKVRQALTMAVNKDAIIDAVYQGAGQAAKNLIPPTMWGYNDDVKDYAYDPAKAKELLKEAGLPDGFSIDLWAMPVQRPYNPNARRMAEMIQSDWAKIGVKAKIVTYEWGEYLKRAKDGEHETVMMGWTGDNGDPDNFFATLFSCDAAKQGSNYSKWCYKPFEDLIQPARAEADHDKRVALYKQAQVVMNEQAPALIIAHSTVYEPVRKEVKGYVVDPLGKHHFDNVSLD | not soluble
MTITPNKLTLKIGRAEGRPGDTVEIPVNLYGVPQKGIASGDFVVSYDPNVLEIIEIEPGELIVDPNPTKSFDTAVYPDRKMIVFLFAEDSGTGAYAITEDGVFATIVAKVKEGAPEGFSAIEISEFGAFADNDLVEVETDLINGGVLVTNKPVIEGYKVSGYILPDFSFDATVAPLVKAGFKVEIVGTELYAVTDANGYFEITGVPANASGYTLKISRATYLDRVIANVVVTGDTSVSTSQAPIMMWVGDIVKDNSINLLDVAEVIRCFNATKGSANYVEELDINRNGAINMQDIMIVHKHFGATSSDYDAQLEHHHHHHMRGSHHHHHHTDLRADKASSIELKFDRNKGEVGDILIGTVRINNIKNFAGFQVNIVYDPKVLMAVDPETGKEFTSSTFPPGRTVLKNNAYGPIQIADNDPEKGILNFALAYSYIAGYKETGVAEESGIIAKIGFKILQKKSTAVKFQDTLSMPGAISGTQLFDWDGEVITGYEVIQPDVLSLGDEPF | soluble
MTIYNINFGIGWASSGVEYAQAYRAKLLRRTNQDTKFVFLDFIQSENIQTLTQNIGFKDQEVIWLYQYFSDISLAPTTYTLDDIERELGHDISFRERNGKIVRLYFNGKSSFVTCYLQNEQKDIVDRAEFVINSMLVRKDFYSYTRIFSEYYAPADNKAKLYMRQFYNQDGSIAYNEYIDGDSSIYVFEDAVLYNKTEFIAYFLQRLNLTRDDIVILDRASDIGQAVLQHKGDSKVGVVIHADHYSNNMMSEQHILWNNYYEYQFSKAKYIDFFITATDIQNHMVCRQFEQYQGYRPRVYTIPVGSIDALSYPTLSRKPYAMISASRLANEKHIDWLVKAVIVAKRQVPELTFDIYGEGSEKTRLRKIIDTHRAQDYIRLLGHVKLDEIYNDYELFLSASTSEGFGLTLMEAVGSGLGMIGLNVNYGNPTFIRDGENGYLVPFDTDEDSVDDVIAKLAHAIVMYFNNGPQTPHDISYEVAQQFMTQDIILKWETLVQEVLHD | not soluble
MTKAFDAFERAIRDAEDLLARHDAEKTVPNGHNGEVLKRAGLVMALAAWETYVKDRLQSEIDTWLQAVEGSPLGKFVRRRLEEDLKRFFNPNDERTRRIFIDYFDVDITKDWVWENYDSSTSKKVLDSLVAKRGDAAHKANTALHASAEPHKVKRDELEKGIRFLKGLVAATEKAKITK | not soluble
MTKAMTAHDYLPLIEKIRKRISSWTGRFLSYCGRLQLIKSVLMSITNFWSSAFRLPGNCMKEIERLCSAFLWSGPDLKTHNAKIAWSKVCLPMCEGGLGLRPLKEINTVCGLKLIWRLLASQTSLWGQWVQTYLIRRNNFWAIKASSYQGSWMWRKLLTLRDVARSFHKKEIHNGRNTSFWYDHWSSMGTLVDVLGARGCIDLGITTTTNMENVFTTRRSRKHRGDLLVRIEAEIEAAKTRHQPDIEDIDLWKPSTGYKKTFSTRETWKLIRMAEPVCEWAKGVWFPKPHQNLLSLLGWVCTIVFQQGTECKSGTAKLTLLAFSAKTLWKQEITYSSTVTTPIKFGKL | not soluble
MTKCSIIIGIFLIAAINGQASKRRIQYESVSQFLFHNSKLCGDPFSDAVWLPVLDLCSIECEITSEYCVENEELTQQCKKLPEDCQALLRKAIKQIQRHIRSQKPVYL | not soluble
MTKMSITVNQTVLHQLVKNVDGDSIKMESVLRDELLSITPEVEQMMLQLHQSYQNKAKAFGVFQEKSIFAQHLNRLLEQEIEFLGFSQYSTKLLADELGKYNFAESGTLILCQYNFLATDYLFIALLDSRHSMLVDEHLDIRRTEYLDITQFDIAARINLTDLQVNANSNRYLTFIKGRVGRKISDFFMDFLGAEEGLNPQVQNQCLLQAVSDYCDQGELNKEQTQAVKKQVFEYCKGQLSNGNNIELRELSDSLPTLNEQPFVVFTEKQNYGLEESIPPIRSTLKSLTKFSGSGKGVTLSFDAELLNTRIQWDPMTDTLTIKGLPPNLKDQLQKALKSENLEHHHHHH | soluble
MTKNPRNNKPKKILDSSYKSKTIWQNYIDALFETFPQLEISEVWAKWDGGNVTKDGGDAKLTANIRTGEHFLKAREAHIVDPNSDIYNTILYPKTGADLPCFGMDLMKFSDKKVIIVFDFQHPREKYLFSVDGLPEDDGKYRFFEMGNHFSKNIFVRYCKPDEVDQYLDTFKLYLTKYKEMIDNNKPVGEDTTVYSDFDTYMTELDPVRGYMKNKFGEGRSEAFVNDFLFSYK | soluble
MTKRGLGKGLDALLATSSLAREKQQVASLSQSMSAEGELADLSISNLKPGIYQPRKDLSPEALEELAASIQSQGIIQPIVVRHLPTGGYEIIAGERRWRAAKQAGLKQVPCLIKQVEDRGAIAMALIENIQREDLNAMEEAQALERLQNEFNLTHQQVAEVIGKSRTTVTNLLRLNQLSDDVKRLLETKQLEMGHARALLMLEGEQQVEIAQQVAKKQLTVRQTEQLVKKCLSDPSDAKNVSEDLEIQQLSQNLSEKLAAKVSIVRTPNGKSKVTISLDEPHKLELLIAKLQN | not soluble
MTKSLESVSFKDVTVDFSRDEWQQLDLAQKSLYREVMLENYFNLISVGCQVPKPEVIFSLEQEEPCMLDGEIPSQSRPDGDIGFGPLQQRMSEEVSFQSEININLFTRDDPYSILEELWKDDEHTRKCGENQNKPLSRVVFINKKTLANDSIFEYKDIGEIVHVNTHLVSSRKRPHNCNSCGKNLEPIITLYNRNNATENSDKTIGDGDIFTHLNSHTEVTACECNQCGKPLHHKQALIQQQKIHTRESLYLFSDYVNVFSPKSHAFAHESICAEEKQHECHECEAVFTQKSQLDGSQRVYAGICTEYEKDFSLKSNRQKTPYEGNYYKCSDYGRAFIQKSDLFRCQRIHSGEKPYEYSECEKNLPQNSNLNIHKKIHTGGKHFECTECGKAFTRKSTLSMHQKIHTGEKPYVCTECGKAFIRKSHFITHERIHTGEKPYECSDCGKSFIKKSQLHVHQRIHTGENPFICSECGKVFTHKTNLIIHQKIHTGERPYICTVCGKAFTDRSNLIKHQKIHTGEKPYKCSDCGKSFTWKSRLRIHQKCHTGERHYECSECGKAFIQKSTLSMHQRIHRGEKPYVCTECGKAFFHKSHFITHERIHTGEKPYECSICGKSFTKKSQLHVHQQIHTGEKPYRCAECGKAFTDRSNLFTHQKIHTGEKPYKCSDCGKAFTRKSGLHIHQQSHTGERHYECSECGKAFARKSTLIMHQRIHTGEKPYICNECGKSFIQKSHLNRHRRIHTGEKPYECSDCGKSFIKKSQLHEHHRIHTGEKPYICAECGKAFTIRSNLIKHQKIHTKQKPYKCSDLGKALNWKPQLSMPQKSDNGEVECSMPQLWCGDSEGDQGQLSSI | soluble
MTKTVEMVITGAQVLNVYTREFEATSLWIDHGRIISNLRDEPYIAAQHVDATGQWIVPGMIDAHVHMESSMVAPSELGKVLLQHGVTTIATDPHELANVAGLEHHHHHH | not soluble
MTLDVGPEDELPDWAAAKEFYQKYDPKDVIGRGVSSVVRRCVHRATGHEFAVKIMEVTAERLSPEQLEEVREATRRETHILRQVAGHPHIITLIDSYESSSFMFLVFDLMRKGELFDYLTEKVALSEKETRSIMRSLLEAVSFLHANNIVHRDLKPENILLDDNMQIRLSDFGFSCHLEPGEKLRELCGTPGYLAPEILKCSMDETHPGYGKEVDLWACGVILFTLLAGSPPFWHRRQILMLRMIMEGQYQFSSPEWDDRSSTVKDLISRLLQVDPEARLTAEQALQHPFFERCEGSQPWNLTPRQRFRVAVWTVLAAGRVALSTHRVRPLTKNALLRDPYALRSVRHLIDNCAFRLYGHWVKKGEQQNRAALFQHRPPGPFPIMGPEEEGDSAAITEDEAVLVLG | soluble
MTLEEARKRVNELRDLIRYHNYRYYVLADPEISDAEYDRLLRELKELEERFPELKSPDSPTLQVGARPLEATFRPVRHPTRMYSLDNAFNLDELKAFEERIERALGRKGPFAYTVEHKVDGLSVNLYYEEGVLVYGATRGDGEVGEEVTQNLLTIPTIPRRLKGVPERLEVRGEVYMPIEAFLRLNEELEERGERIFKNPRNAAAGSLRQKDPRITAKRGLRATFYALGLGLEEVEREGVATQFALLHWLKEKGFPVEHGYARAVGAEGVEAVYQDWLKKRRALPFEADGVVVKLDELALWRELGYTARAPRFAIAYKFPAEEKETRLLDVVFQVGRTGRVTPVGILEPVFLEGSEVSRVTLHNESYIEELDIRIGDWVLVHKAGGVIPEVLRVLKERRTGEERPIRWPETCPECGHRLLKEGKVHRCPNPLCPAKRFEAIRHFASRKAMDIQGLGEKLIERLLEKGLVKDVADLYRLRKEDLVGLERMGEKSAQNLLRQIEESKKRGLERLLYALGLPGVGEVLARNLAARFGNMDRLLEASLEELLEVEEVGELTARAILETLKDPAFRDLVRRLKEAGVEMEAKEKGGEALKGLTFVITGELSRPREEVKALLRRLGAKVTDSVSRKTSYLVVGENPGSKLEKARALGVPTLTEEELYRLLEARTGKKAEELV | soluble
